Source: the Human Domainome abundance scans (Beltran et al. 2025)

B1: Zinc finger MYM-type protein 3, residues 405 to 444; numbered along this chain, Q14202 (parent)
chain: DATRCSICQKTGEVLHEVSNGSVVHRLCSDSCFSKFRANK

Variants of: B1
Experiment: abundance fitness (aPCA) (normalised: wild type 0, dead -1); higher = more abundant; growth selection in yeast, the domain comes from the species named
Details: Homo sapiens

Abundance fitness, by site and new letter:
S22: M 0.021; H -0.055; I -0.153; P -0.039; A -0.109; L -0.208; V -0.571; W -0.419; R -0.136
D1: R -0.165; T 0.303; V 0.083; N 0.142; A -0.182; W -0.504; M 0.112; K 0.157; L -0.07
C5: Y -0.97; A -1.29; P -1.02; L -0.835; G -0.914; V -0.999; W -1.06; T -0.836
C32: T -0.565; I -0.587; V -0.742; P -0.763; K -0.727
V14: K -0.43; C -0.453; I -0.029; P -0.057; G -0.08; N -0.087; H -0.667; E -0.453; M -0.029; Q -0.142; D -0.228
N20: H -0.033; C -0.517; V -0.296; I 0.047
I7: T -0.218; A -0.325; H -0.267; C -0.463; W -0.218; Y 0.079; E -0.332; S -0.269; G -0.12; K -0.508; F -0.13
S6: Y 0.052; G -0.252; R -0.228; W -0.182; P -0.009; M -0.365; I -0.021; L -0.312; V -0.469
G12: F -0.414; S -0.115; T -0.092; E -0.083; M -0.089; P -0.639; L -0.245; N -0.511
L15: V -0.034; P -0.033; N -0.038; Y -0.142; T -0.141; G -0.153
K40: L -0.095; R 0.023; I 0.012; N 0.15; W -0.116; C 0.205; H 0.222; F -0.128
S31: A -0.063; P -0.025; W -0.218; T 0.027; L -0.022; F -0.166; Q 0.042; R 0.047
H16: D -0.379; C -1.09; F -0.208; I -0.701; N -0.252; V -0.492; R -0.121; S -0.319; E -0.033
D30: I -0.734; G -0.269; T -0.219; Q -0.079; R -0.231; S -0.387; C -1.66; P -0.371; F -0.632; M -0.28; W -1.07
Q9: R -0.288; S -0.129; Y -0.014; H -0.194; M -0.123; D -0.293; G -0.16; E 0.023; V -0.803; P -0.606
S19: V -0.135; N 0.052; Y -0.383; L -0.233; Q 0.059; G -0.1; F -0.101; E 0.066; T -0.009; R -0.078; K 0.176
K10: Y -0.436; S -0.231; D -0.49; Q -0.208; E -0.088; G -0.09; L -0.273; V -0.649; P -0.877
V18: C -0.201; W -0.228; F -0.095; A -0.183; N -0.358; M -0.266; E -0.15; L -0.157
F33: T -0.072; M 0.187; P -0.186; K 0.03; H 0.073; I -0.067; Y -0.094; C -0.11; S -0.015
A2: G -0.186; T 0.35; N 0.461; K 0.243; R -0.089; M 0.48; E -0.013; I 0.327; V -0.603; P -0.225
T3: K 0.272; C -0.726; G 0.091; M 0.426; F -0.181; Y -0.025
S29: K -0.602; W -0.669; G -0.277; L -0.755; Y -0.936; P -0.487; M -0.622; F -1.05; I -0.857; C -0.591; D -0.404
C28: H -0.733; D -0.529; Q -0.809; W -1.02; Y -0.85; A -0.594; E -0.576; V -0.808
G21: M -0.243; S -0.193; E 0.008
R26: I -0.173; N -0.195; P -0.074; F -0.177; T -0.048; E -0.283; Y -0.339
E13: G -0.271; P -0.236; V -0.298; I -0.448; W -0.696; M -0.074
V23: L -0.317; A -0.085; I -0.087; G 0.018; Q 0.181; T 0.126; W -0.757; K 0.114; E 0.103; R -0.013; F -0.01
N39: C -0.319; G 0.017; Q 0.29; V 0.058; K 0.167; W -0.192; A 0.015; E 0.128; R 0.081; P 0.043; S 0.003
T11: K -0.354; S -0.315; D -0.104; C -0.519; Q -0.157; A -0.27
R4: V -0.193; Y 0.079; W -0.563; A -0.2; I 0.211; T -0.125; S -0.35; H -0.039; F 0.147; P -0.335
H25: M -0.129; G -0.164; N -0.031; I -0.216; S -0.138; R -0.318; T -0.046; V -0.507; K -0.006; L -0.266
C8: W -1.19; Q -0.993; Y -0.774; R -0.787; G -0.86; P -0.912
L27: S -0.447; V -0.22; R -0.393; E -0.352; C 0.032; Q -0.294; K -0.317; M 0.033; Y -0.056; H -0.382
E17: S -0.192; Y -1.02; W -0.959; L -0.764; M -0.395; T -0.089; R -0.44; C -0.358; H -0.285; P -0.697; F -0.606
S34: D 0.203; W -0.187; F -0.18; P -0.114; C -0.729; A 0.203
V24: F -0.307; H -0.034; I -0.064; M 0.048; K 0.032
K35: S 0.02; H -0.03; L -0.127; W -0.84; Q 0.146; M 0.078; C -0.959; Y -0.175; F 0.052
R37: F -0.506; S 0.048; P -0.18; T 0.043; W -0.288; E 0.395; V -0.23
A38: K -0.228; W -0.353; R -0.199; F -0.259; Q -0.072; P -0.354; E 0.015; D -0.139; I -0.215; H -0.524; L -0.265
F36: Y -0.22; A 0.042; V -0.085; H -0.053; E 0.029; R -0.236; N -0.772
